One experiment deals with T1, recombinant human sIL-6R (human, UniProt P08887 20-358, limits assumed).
T1 construct: Bought; also called human soluble IL6R
T1 sequence (looked up): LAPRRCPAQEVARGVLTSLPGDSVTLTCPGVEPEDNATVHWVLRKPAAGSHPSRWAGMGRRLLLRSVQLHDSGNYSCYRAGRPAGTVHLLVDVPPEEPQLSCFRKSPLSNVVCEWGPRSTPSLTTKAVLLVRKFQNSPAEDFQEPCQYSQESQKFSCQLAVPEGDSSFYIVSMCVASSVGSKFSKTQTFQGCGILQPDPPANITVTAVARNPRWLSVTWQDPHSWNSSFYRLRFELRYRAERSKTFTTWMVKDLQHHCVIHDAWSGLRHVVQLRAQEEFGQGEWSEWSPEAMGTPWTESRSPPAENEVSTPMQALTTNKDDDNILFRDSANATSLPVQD
Description: ELISA: Xceptor captured on anti-human IgG-Fc, sIL-6R added, detected with anti-IL-6R-biotin. How it is done: Added to each well of a 96-well plate was 100 μl goat anti-human IgG-Fc (ICN Pharmaceuticals, Costa Mesa, Calif.) from a 2 μg/ml solution in PBS, pH 7.2-7.4. The plates were covered, and incubated overnight at 4° C. After washing four times with PBS-T, 250 μl Blocking buffer (PBS-T with 3% BSA or 10% normal goat serum) was added to each well, the plate was covered, and incubated at room temperature for 2 hours (or at 4° C. overnight). […] After washing the plate five times with PBS-T, added in duplicate wells was 100 μl/well recombinant human sIL-6R(R&D Systems) from a […] solution in Working buffer, the plate was covered, and incubated at room temperature for about 1 to 2 hours. After washing the plate five times with PBS-T, added 100 μl/well anti-human IL-6R-biotin (R&D Systems) from a 100 ng/ml solution in Working buffer, the plate was covered, and incubated at room temperature for about 1 to 2 hours. After washing the plate five times with PBS-T, 100 μl per well horse radish peroxidase-conjugated streptavidin (Zymed, San Francisco, Calif.) diluted 1:4,000 in Working buffer was added, the plate was covered, and incubated at room temperature for 30 minutes. After washing the plate six times with PBS-T, 100 μl per well 3,3,5,5-tetramentylbenzidine (TMB) substrate solution (Pierce, Rockford, Ill.) was added for about 3 to 5 minutes and then the reaction was stopped with 50 μl Stop buffer (1N H₂SO₄) per well. The absorbance of each well was read at 450 nm.
(In general: ELISA stands for enzyme-linked immunosorbent assay.)

In experiment [1] the target is T2, recombinant human TNF-α (human, UniProt P01375 77-233).
T2 construct: also called rhTNFα
T2 sequence (P01375 77-233 limits assumed): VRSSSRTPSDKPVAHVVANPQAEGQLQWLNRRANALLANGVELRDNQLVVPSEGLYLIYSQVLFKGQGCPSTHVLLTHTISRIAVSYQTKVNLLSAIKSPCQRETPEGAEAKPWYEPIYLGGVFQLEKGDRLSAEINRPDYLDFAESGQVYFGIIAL
Description: ELISA: Xceptor captured on anti-human IgG-Fc, rhTNF-α added, detected with anti-TNF-α-biotin. How it is done: Added to each well of a 96-well plate was 100 μl goat anti-human IgG-Fc (ICN Pharmaceuticals, Costa Mesa, Calif.) from a 2 μg/ml solution in PBS, pH 7.2-7.4. The plate was covered, and incubated overnight at 4° C. After washing four times with PBS-T, 250 μl Blocking buffer was added to each well, the plate was covered, and incubated at room temperature for 2 hours (or at 4° C. overnight). […] After washing the plate five times with PBS-T, 100 μl per well horse radish peroxidase-conjugated streptavidin (Jackson ImmunoResearch, West Grove, Pa.) diluted 1:1,000 in Working buffer was added, the plate was covered, and incubated at room temperature for 30 minutes. After washing the plate six times with PBS-T, 100 μl per well 3,3,5,5-tetramentylbenzidine (TMB) substrate solution (Pierce, Rockford, Ill.) was added for about 3 to 5 minutes and then the reaction was stopped with 50 μl Stop buffer (1N H₂SO₄) per well. The absorbance of each well was read at 450 nm.

Experiment [2] addresses T2, recombinant human TNF-α. Description: ELISA: plate-coated HIL-6, Xceptor, then rhTNF-α, detected with anti-TNF-α-biotin (simultaneous binding). How it is done:
The plate was covered, and incubated overnight at 4° C. […] The absorbance of each well was read at 450 nm.

In experiment [3] the target is TNFα (Biacore analyte of Example 12) (UniProt P01375 77-233, limits assumed). Description: SPR (Biacore T100): binder captured by anti-human Fc, TNFα injected. An excerpt:
The unoccupied sites of the activated surface were blocked by ethanolamine. […] At the end of the cycle, the surface was regenerated gently using 3M MgCl₂ which dissociates protein bound to anti hFc capture antibody. […] The value of this parameter was then fixed and the data from the low density surface were used to calculate the association rate constant, kₐ and the Rₘₐₓ. This strategy maximizes signal-to-noise for the dissociation phase data and reduces the mass transport limitation for the association phase data. BIAevaluation software was used to perform these analyses.

Chain of TNFα (Biacore analyte of Example 12) (P01375 77-233 limits assumed): as above

B1: TRU(XT6)-1019 (Fc fusion)
chain: LPAQVAFTPYAPEPGSTCRLREYYDQTAQMCCSKCSPGQHAKVFCTKTSDTVCDSCEDSTYTQLWNWVPECLSCGSRCSSDQVETQACTREQNRICTCRPGWYCALSKQEGCRLCAPLRKCRPGFGVARPGTETSDVVCKPCAPGTFSNTTSSTDICRPHQICNVVAIPGNASMDAVCTSTSPTRSMAPGAVHLPQPVSTRSQHTQPTPEPSTAPSTSFLLPMGPSPPAEGSTGDTGEPKSSDKTHTCPPCPAPEAAGAPSVFLFPPKPKDTLMISRTPEVTCVVVDVSHEDPEVKFNWYVDGVEVHNAKTKPREEQYNSTYRVVSVLTVLHQDWLNGKAYACAVSNKALPAPIEKTISKAKGQPREPQVYTLPPSRDELTKNQVSLTCLVKGFYPSDIAVEWESNGQPENNYKTTPPVLDSDGSFFLYSKLTVDKSRWQQGNVFSCSVMHEALHNHYTQKSLSLSPGQRHNNSSLNTRTQKARHSPNSEVQLLESGGGLVQPGGSLRLSCAASGFTFSWYLMHWVRQAPGKGLEWVSGIWPSGGHTLYADSVKGRFTISRDNSKNTLYLQMNSLRAEDTAVYYCAREPLLWFGELSYNWFDPWGQGTLVTVSSGGGGSGGGGSGGGGSQDIQMTQSPSSVSASVGDRVTITCRASQGISSWLAWYQQKPGKAPKLLIYAASSLQSGVPSRFSGSGSGTDFTLTISSLQPEDFATYYCQQANSFPLTFGGGTKVEIK
notes: not trimmed; also called Xceptor TNFRSF1B::anti-HIL6
In the case of B1, the binding result with recombinant human sIL-6R is reported as “no binding”; with recombinant human TNF-α [1] it was “binds”.

B2: TRU(X6T)-1019 (Fc fusion)
chain: EVQLLESGGGLVQPGGSLRLSCAASGFTFSWYLMHWVRQAPGKGLEWVSGIWPSGGHTLYADSVKGRFTISRDNSKNTLYLQMNSLRAEDTAVYYCAREPLLWFGELSYNWFDPWGQGTLVTVSSGGGGSGGGGSGGGGSQDIQMTQSPSSVSASVGDRVTITCRASQGISSWLAWYQQKPGKAPKLLIYAASSLQSGVPSRFSGSGSGTDFTLTISSLQPEDFATYYCQQANSFPLTFGGGTKVEIKTGEPKSSDKTHTCPPCPAPEAAGAPSVFLFPPKPKDTLMISRTPEVTCVVVDVSHEDPEVKFNWYVDGVEVHNAKTKPREEQYNSTYRVVSVLTVLHQDWLNGKAYACAVSNKALPAPIEKTISKAKGQPREPQVYTLPPSRDELTKNQVSLTCLVKGFYPSDIAVEWESNGQPENNYKTTPPVLDSDGSFFLYSKLTVDKSRWQQGNVFSCSVMHEALHNHYTQKSLSLSPGQRHNNSSLNTRTQKARHSPNSLPAQVAFTPYAPEPGSTCRLREYYDQTAQMCCSKCSPGQHAKVFCTKTSDTVCDSCEDSTYTQLWNWVPECLSCGSRCSSDQVETQACTREQNRICTCRPGWYCALSKQEGCRLCAPLRKCRPGFGVARPGTETSDVVCKPCAPGTFSNTTSSTDICRPHQICNVVAIPGNASMDAVCTSTSPTRSMAPGAVHLPQPVSTRSQHTQPTPEPSTAPSTSFLLPMGPSPPAEGSTGD
notes: also called Xceptor in the reverse orientation
As to B2, the binding result with recombinant human sIL-6R is “no binding”; with recombinant human TNF-α [1] it was “binds”.

B3: TRU(XT6)-1058 (Fc fusion)
chain: LPAQVAFTPYAPEPGSTCRLREYYDQTAQMCCSKCSPGQHAKVFCTKTSDTVCDSCEDSTYTQLWNWVPECLSCGSRCSSDQVETQACTREQNRICTCRPGWYCALSKQEGCRLCAPLRKCRPGFGVARPGTETSDVVCKPCAPGTFSNTTSSTDICRPHQICNVVAIPGNASMDAVCTSTSPTRSMAPGAVHLPQPVSTRSQHTQPTPEPSTAPSTSFLLPMGPSPPAEGSTGDTGEPKSSDKTHTCPPCPAPEAAGAPSVFLFPPKPKDTLMISRTPEVTCVVVDVSHEDPEVKFNWYVDGVEVHNAKTKPREEQYNSTYRVVSVLTVLHQDWLNGKAYACAVSNKALPAPIEKTISKAKGQPREPQVYTLPPSRDELTKNQVSLTCLVKGFYPSDIAVEWESNGQPENNYKTTPPVLDSDGSFFLYSKLTVDKSRWQQGNVFSCSVMHEALHNHYTQKSLSLSPGQRHNNSSLNTRTQKARHSPNSEVQLLESGGGLVQPGGSLRLSCAASGFTFSMYTMHWVRQAPGKGLEWVSWISPSGGWTKYADSVKGRFTISRDNSKNTLYLQMNSLRAEDTAVYYCAVSPWGGPFDYWGQGTLVTVSSGGGGSGGGGSGGGGSQDIQMTQSPSTLSASVGDRVTITCRASQSISSWLAWYQQKPGKAPKLLIYKASTLESGVPSRFSAGGSGTEFTLTISSLQPDDFGTYYCQQYNSYSLTFGGGTKVEII
notes: as for B1
Take B3: the binding result with recombinant human sIL-6R was “no binding”; with recombinant human TNF-α [1], “binds”.

B4: TRU(XT6)-1006 (Fc fusion)
chain: LPAQVAFTPYAPEPGSTCRLREYYDQTAQMCCSKCSPGQHAKVFCTKTSDTVCDSCEDSTYTQLWNWVPECLSCGSRCSSDQVETQACTREQNRICTCRPGWYCALSKQEGCRLCAPLRKCRPGFGVARPGTETSDVVCKPCAPGTFSNTTSSTDICRPHQICNVVAIPGNASMDAVCTSTSPTRSMAPGAVHLPQPVSTRSQHTQPTPEPSTAPSTSFLLPMGPSPPAEGSTGDTGEPKSSDKTHTCPPCPAPEAAGAPSVFLFPPKPKDTLMISRTPEVTCVVVDVSHEDPEVKFNWYVDGVEVHNAKTKPREEQYNSTYRVVSVLTVLHQDWLNGKAYACAVSNKALPAPIEKTISKAKGQPREPQVYTLPPSRDELTKNQVSLTCLVKGFYPSDIAVEWESNGQPENNYKTTPPVLDSDGSFFLYSKLTVDKSRWQQGNVFSCSVMHEALHNHYTQKSLSLSPGQRHNNSSLNTRTQKARHSPNSEVQLLESGGGLVQPGGSLRLSCAASGFTFSQYNMIWVRQAPGKGLEWVSWISSSGGTEYADSVKGRFTISRDNSKNTLYLQMNSLRAEDTAVYYCAKDRGYGSGSYGAYDAFDIWGQGTMVTVSSGGGGSGGGGSGGGGSQDIQMTQSPSSLSASVGDRVTITCQTSQSIDRYLNWYQQKAGEAPKLLIYAASSLQSGVPSRFSGSGSGTDFTLTISSLQPEDFASYYCQQSYRTPRTFGQGTKVEIK
notes: not trimmed; also called Xceptor TNFRSF1B::HIL6
Consider B4, for which the binding result with recombinant human TNF-α [2] is given as “binds”.

B5: TRU(XT6)-1002 (Fc fusion)
chain: LPAQVAFTPYAPEPGSTCRLREYYDQTAQMCCSKCSPGQHAKVFCTKTSDTVCDSCEDSTYTQLWNWVPECLSCGSRCSSDQVETQACTREQNRICTCRPGWYCALSKQEGCRLCAPLRKCRPGFGVARPGTETSDVVCKPCAPGTFSNTTSSTDICRPHQICNVVAIPGNASMDAVCTSTSPTRSMAPGAVHLPQPVSTRSQHTQPTPEPSTAPSTSFLLPMGPSPPAEGSTGDTGEPKSSDKTHTCPPCPAPEAAGAPSVFLFPPKPKDTLMISRTPEVTCVVVDVSHEDPEVKFNWYVDGVEVHNAKTKPREEQYNSTYRVVSVLTVLHQDWLNGKAYACAVSNKALPAPIEKTISKAKGQPREPQVYTLPPSRDELTKNQVSLTCLVKGFYPSDIAVEWESNGQPENNYKTTPPVLDSDGSFFLYSKLTVDKSRWQQGNVFSCSVMHEALHNHYTQKSLSLSPGQRHNNSSLNTRTQKARHSPNSEVQLLESGGGLVQPGGSLRLSCAASGFTFSFYQMHWVRQAPGKGLEWVSGIYPSGGYTKYADSVKGRFTISRDNSKNTLYLQMNSLRAEDTAVYYCARDLGYGSSWYYFDYWGQGTLVTVSSGGGGSGGGGSGGGGSQSALTQPASVSGSPGQSITISCSGTDSDVGGYNHVSWYQQHPGKAPKLIIYDVDHRPSGISNRFSGSKSGNTASLTISGLQAEDEADYYCSSYRSGSTYVFGTGTKVTVL
notes: also called Xceptor TNFRSF1B::anti-HIL6
For orientation: Kd means the constant that tells how readily two partners part at equilibrium. As usually defined, the koff is the first-order rate constant of dissociation. The low end stands for a long-lived complex, the high end for a short-lived complex. What is called kon is the rate constant with which the complex forms. Low values mean slow association, high ones fast association. Consider B5, for which, in experiment [3], the dissociation constant Kd turned out to be 3.1 pM, the off-rate (koff) stood at 0.00014 s⁻¹ and the kon came to 4.7e+07 M⁻¹ s⁻¹. In addition, in the experiment with recombinant human sIL-6R, the binding result is listed as “no binding”.

(Values after patent US20110152173A1 (EMERGENT PRODUCT DEVELOPMENT SEATTLE, published 2011).)
